The results in this text go back to patent US9150647 (KANCERA, dated 2015).

The target in experiment [1] is human Ror1 (receptor tyrosine kinase ROR1, 937 amino acids, 105 kDa) (human) (UniProt Q01973). Put plainly: flow cytometry, surface staining of cells of patient CLL-1. A general note: A flow cytometer gives signals particle by particle.
Experiment [2] shares this target. In words: flow cytometry, surface staining of cells of patient CLL-2.
For experiment [3] the target is unchanged. In words: flow cytometry, surface staining of cells of patient CLL-3.
Experiment [4] shares this target. Put plainly: flow cytometry, surface staining of cells of patient CLL-4.
Experiment [5] shares this target. In words: flow cytometry, surface staining of cells of patient CLL-5.
Experiment [6] shares this target. Put plainly: flow cytometry, surface staining of cells of patient CLL-6.
Experiment [7] shares this target. In words: flow cytometry, surface staining of cells of patient CLL-7.
The target is the same in experiment [8]. In words: flow cytometry, surface staining of cells of patient CLL-8.
For experiment [9] the target is unchanged. Put plainly: flow cytometry, surface staining of cells of patient CLL-9.
For experiment [10] the target is unchanged. In words: flow cytometry, surface staining of cells of patient CLL-10.
For experiment [11] the target is unchanged. In words: flow cytometry, surface staining of cells of patient CLL-11.
Experiment [12] shares this target. Put plainly: flow cytometry, surface staining of cells of patient CLL-12.
Experiment [13] shares this target. In words: flow cytometry, surface staining of cells of patient CLL-13.
Experiment [14] shares this target. Put plainly: flow cytometry, surface staining of cells of patient CLL-14.
Experiment [15] shares this target. Put plainly: flow cytometry, surface staining of cells of patient CLL-15.
The target is the same in experiment [16]. Put plainly: flow cytometry, surface staining of cells of patient CLL-16.
The target is the same in experiment [17]. Put plainly: flow cytometry, surface staining of cells of patient CLL-17.
The target is the same in experiment [18]. Put plainly: flow cytometry, surface staining of cells of patient CLL-18.
Experiment [19] shares this target. In words: flow cytometry, surface staining of CD19+ cells of patient CLL-1.
Experiment [20] shares this target. Put plainly: flow cytometry, surface staining of CD19+ cells of patient CLL-2.
The target is the same in experiment [21]. In words: flow cytometry, surface staining of CD19+ cells of patient CLL-3.
For experiment [22] the target is unchanged. In words: flow cytometry, surface staining of CD19+ cells of patient CLL-4.
For experiment [23] the target is unchanged. In words: flow cytometry, surface staining of CD19+ cells of patient CLL-5.
The target is the same in experiment [24]. In words: flow cytometry, surface staining of CD19+ cells of patient CLL-6.
For experiment [25] the target is unchanged. Put plainly: flow cytometry, surface staining of CD19+ cells of patient CLL-7.
The target is the same in experiment [26]. Put plainly: flow cytometry, surface staining of CD19+ cells of patient CLL-8.
For experiment [27] the target is unchanged. In words: flow cytometry, surface staining of CD19+ cells of patient CLL-9.
For experiment [28] the target is unchanged. In words: flow cytometry, surface staining of CD19+ cells of patient CLL-10.
Experiment [29] has the same target. Put plainly: flow cytometry, surface staining of CD19+ cells of patient CLL-11.
Experiment [30] shares this target. Put plainly: flow cytometry, surface staining of CD19+ cells of patient CLL-12.
The target is the same in experiment [31]. Put plainly: flow cytometry, surface staining of CD19+ cells of patient CLL-13.
Experiment [32] has the same target. In words: flow cytometry, surface staining of CD19+ cells of patient CLL-14.
Experiment [33] shares this target. Put plainly: flow cytometry, surface staining of CD19+ cells of patient CLL-15.
Experiment [34] has the same target. In words: flow cytometry, surface staining of CD19+ cells of patient CLL-16.
For experiment [35] the target is unchanged. In words: flow cytometry, surface staining of CD19+ cells of patient CLL-17.
The target is the same in experiment [36]. Put plainly: flow cytometry, surface staining of CD19+ cells of patient CLL-18.
In experiment [37] the target is T1, human Ror1 (receptor tyrosine kinase ROR1, 937 amino acids, 105 kDa) (human, UniProt Q01973 30-937).
T1 construct: whole, on cells; Endogenous Ror1 of primary CLL cells; the same entry is used for surface staining and for the 105 kDa band in Western blots of cell lysates; also called Ror1 protein
T1 sequence (Q01973 30-937): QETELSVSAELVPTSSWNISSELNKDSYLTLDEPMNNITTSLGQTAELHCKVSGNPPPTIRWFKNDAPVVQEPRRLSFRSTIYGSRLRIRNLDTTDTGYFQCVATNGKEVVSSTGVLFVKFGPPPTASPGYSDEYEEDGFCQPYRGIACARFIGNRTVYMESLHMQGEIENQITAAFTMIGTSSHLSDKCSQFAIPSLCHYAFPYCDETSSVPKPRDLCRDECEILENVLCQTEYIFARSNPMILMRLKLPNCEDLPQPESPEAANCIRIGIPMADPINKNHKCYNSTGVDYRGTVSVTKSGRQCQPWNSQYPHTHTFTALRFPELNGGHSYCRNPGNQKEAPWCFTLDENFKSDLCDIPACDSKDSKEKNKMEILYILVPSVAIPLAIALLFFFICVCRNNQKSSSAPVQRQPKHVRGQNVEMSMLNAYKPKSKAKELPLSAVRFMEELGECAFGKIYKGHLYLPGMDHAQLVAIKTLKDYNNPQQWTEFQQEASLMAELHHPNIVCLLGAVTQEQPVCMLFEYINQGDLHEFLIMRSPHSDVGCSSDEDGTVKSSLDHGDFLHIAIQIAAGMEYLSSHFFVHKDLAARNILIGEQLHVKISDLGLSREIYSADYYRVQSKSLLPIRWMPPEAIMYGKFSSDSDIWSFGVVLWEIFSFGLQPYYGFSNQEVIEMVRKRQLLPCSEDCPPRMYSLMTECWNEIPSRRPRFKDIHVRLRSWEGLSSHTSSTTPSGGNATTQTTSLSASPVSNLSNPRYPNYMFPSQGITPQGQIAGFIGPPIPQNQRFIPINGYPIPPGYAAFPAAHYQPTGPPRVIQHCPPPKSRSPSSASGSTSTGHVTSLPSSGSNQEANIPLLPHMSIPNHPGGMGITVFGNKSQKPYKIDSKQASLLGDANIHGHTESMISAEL
In words: flow cytometry, surface staining of CLL cells.

human Ror1 (receptor tyrosine kinase ROR1, 937 amino acids, 105 kDa) (human), sequence (Q01973 30-937): as above

For “goat anti-Ror1 polyclonal antibody (N-Ror1com) (R&D systems)”, the Ror1 MFI was found to be 13 in experiment [1]; 25 in [2]; 10 in experiment [3]; 20 in experiment [4]; 26 in experiment [5]; 35 in [6]. The Ror1 MFI was found to be 14 in experiment [7]; 20 in [8]; 20 in experiment [9]; 10 in experiment [10]; 11 in [11]; 15 in experiment [12]. The Ror1 MFI came out at 14 in [13]; 45 in experiment [14]; 19 in experiment [15]; 18 in [16]; 20 in experiment [17]; 33 in experiment [18]. In addition, the Freq. (%) of Ror1+ CLL cells (CD19+) in experiment [19] worked out at 80%; in experiment [20], 91%; in [21], 36%; in [22] it was 86%; in experiment [23] it was 80%; in experiment [24], 91%. In addition, the Freq. (%) of Ror1+ CLL cells (CD19+) worked out at 37% in experiment [25]; 50% in experiment [26]; 69% in experiment [27]; 63% in experiment [28]; 65% in experiment [29]; 81% in experiment [30]. In addition, the Freq. (%) of Ror1+ CLL cells (CD19+) was 84% in [31]; 92% in experiment [32]; 61% in [33]; 36% in experiment [34]; 79% in experiment [35]; 93% in [36].

B1: Anti-Ror1 Ig24 (clone 2A4) antibody (antibody, IgM, V domains shown)
VH: EVKLQQSGPELVKPGASVKISCKTSGYTFTEYTMHWVKQSHGKSLEWIGGINPNNGGTSYNQKFKGKATLTVDKSSSTAYMELRSLTSEDSAVYYCALQGFAYWGQGTPLTVSS
VL: EIEITQTPALMSASPGEKVTMTCSASSSVSYMYWYQQKPRSSPKPWIYLTSNLASGVPARFSGSGSGTSYSLTISSMEAEDAATYYCQQWSSNPYTFGGGTRLELK
notes: Mouse monoclonal antibody; also called Ror Ig24 (IgM)
Turning to B1, the binding result in experiment [37] is recorded as “binds”.

B2: Anti-Ror1 CRD16 (clone 1C11) antibody (antibody, V domains shown)
VH: EVKLQESGAELARPGASVKMSCKASGYTFTSYTMHWVKQRPGQGLEWIGYINPSSGYTEYNQKFKDKTTLTADKSSSTAYMQLSSLTSGDSAVYYCARRVLWLRRGDYWGQGTILTVSA
VL: EVLITQTPSSLSASLGERVSLTCRASQDIGSSLNWLQQEPDGTIKRLIYATSSLDSGVPKRFSGSRSGSDYSLTISSLESEDFVDYYCLQYASSPYTFGGGTKLELK
notes: Mouse monoclonal antibody; also called Ror CRD (IgM)
In the case of B2, in [37], the binding result is recorded as “binds”.
